Laboratory results reported in US20200115714A1 (GEORGIA TECH RESEARCH, published 2020).

T1: E. coli fatty acid biosynthesis acyl carrier protein (E. coli AcpP), P0A6A8
T1 chain: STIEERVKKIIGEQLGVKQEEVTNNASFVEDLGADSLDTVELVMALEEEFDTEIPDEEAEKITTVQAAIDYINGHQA


Key:
15N-octanoyl-AcpP = biological target: T2, 15N-octanoyl-AcpP (Escherichia coli, UniProt P0A6A8 2-78, octanoyl group, 15N-labelled (printed as 15N-octanoyl-AcpP); attachment site not given); experiment: NMR titrations between 15N-octanoyl-AcpP and the AbTEs
T2 construct: Purified, labelled AcpP of the NMR titrations; also called 15N-AcpP; E. coli ACP

[1] = biological target: T1, E. coli fatty acid biosynthesis acyl …

Binder | secreted MCFAs, E. coli (GC/MS) [1] | secreted MCFAs, E. coli MG1655, 24 hrs (GC/MS) [1] | secreted MCFAs, E. coli, 72 hrs (GC/MS) [1] | further results
AbTE:G17R with C-terminal His6-tag (pET-28b-AbTE:G17R) (enzyme, Purified protein; also called pET-AbTE:G17R) MGKTILILGDSLSAGYRINPEQGWVALLQKRLDQQFPKQHKVINASVSGETTSGALARLPKLLTTYRPNVVVIELGGNDALRGQPPQMIQSNLEKLIQHSQKAKSKVVVFGMKIPPNYGTAYSQAFENNYKVVSQTYQVKLLPFFLDGVAGHKSLMQNDQIHPNAKAQSILLNNAYPYIKGALHHHHHH |  |  |  | binding result (15N-octanoyl-AcpP): binds
AbTE:G17R/A165R with C-terminal His6-tag (pET-28b-AbTE:G17R/A165R) (enzyme, Purified protein; also called pET-AbTE:G17R/A165R) MGKTILILGDSLSAGYRINPEQGWVALLQKRLDQQFPKQHKVINASVSGETTSGALARLPKLLTTYRPNVVVIELGGNDALRGQPPQMIQSNLEKLIQHSQKAKSKVVVFGMKIPPNYGTAYSQAFENNYKVVSQTYQVKLLPFFLDGVAGHKSLMQNDQIHPNRKAQSILLNNAYPYIKGALHHHHHH |  |  |  | binding result (15N-octanoyl-AcpP): binds
AbTE:G17E (protein) MGKTILILGDSLSAGYEINPEQGWVALLQKRLDQQFPKQHKVINASVSGETTSGALARLPKLLTTYRPNVVVIELGGNDALRGQPPQMIQSNLEKLIQHSQKAKSKVVVFGMKIPPNYGTAYSQAFENNYKVVSQTYQVKLLPFFLDGVAGHKSLMQNDQIHPNAKAQSILLNNAYPYIKGAL | ˜21 mg/L and 14 mg/L of secreted MCFAs, respectively |  |  | 
Acinetobacter baylyi acyl-ACP thioesterase (AbTE) wild type (protein) MGKTILILGDSLSAGYGINPEQGWVALLQKRLDQQFPKQHKVINASVSGETTSGALARLPKLLTTYRPNVVVIELGGNDALRGQPPQMIQSNLEKLIQHSQKAKSKVVVFGMKIPPNYGTAYSQAFENNYKVVSQTYQVKLLPFFLDGVAGHKSLMQNDQIHPNAKAQSILLNNAYPYIKGAL |  | ˜29 mg/L of secreted MCFAs | from ˜29 mg/L to ˜79 mg/L | 
AbTE:G17E/A165E (protein) MGKTILILGDSLSAGYEINPEQGWVALLQKRLDQQFPKQHKVINASVSGETTSGALARLPKLLTTYRPNVVVIELGGNDALRGQPPQMIQSNLEKLIQHSQKAKSKVVVFGMKIPPNYGTAYSQAFENNYKVVSQTYQVKLLPFFLDGVAGHKSLMQNDQIHPNEKAQSILLNNAYPYIKGAL | ˜21 mg/L and 14 mg/L of secreted MCFAs, respectively |  |  | 
AbTE:G17R/A165E (protein) MGKTILILGDSLSAGYRINPEQGWVALLQKRLDQQFPKQHKVINASVSGETTSGALARLPKLLTTYRPNVVVIELGGNDALRGQPPQMIQSNLEKLIQHSQKAKSKVVVFGMKIPPNYGTAYSQAFENNYKVVSQTYQVKLLPFFLDGVAGHKSLMQNDQIHPNEKAQSILLNNAYPYIKGAL | AbTE:G17R/A165E resulted in ˜57 mg/L of secreted MCFAs |  |  | 
AbTE:G17E/A165R (protein) MGKTILILGDSLSAGYEINPEQGWVALLQKRLDQQFPKQHKVINASVSGETTSGALARLPKLLTTYRPNVVVIELGGNDALRGQPPQMIQSNLEKLIQHSQKAKSKVVVFGMKIPPNYGTAYSQAFENNYKVVSQTYQVKLLPFFLDGVAGHKSLMQNDQIHPNRKAQSILLNNAYPYIKGAL | This favorable effect in secreted MCFAs or secreted fatty acids of all chain lengths is not seen in AbTE:G17E/A165R |  |  | 
AbTE:G17R/A165R (protein) MGKTILILGDSLSAGYRINPEQGWVALLQKRLDQQFPKQHKVINASVSGETTSGALARLPKLLTTYRPNVVVIELGGNDALRGQPPQMIQSNLEKLIQHSQKAKSKVVVFGMKIPPNYGTAYSQAFENNYKVVSQTYQVKLLPFFLDGVAGHKSLMQNDQIHPNRKAQSILLNNAYPYIKGAL |  | ˜98 mg/L of secreted MCFAs | increased from 98 mg/L to 131 mg/L when extending the cultivation time from 24 hrs to 72 hrs | secreted MCFA titers against AbTE:G17R [1]: a 29% increase in secreted MCFA titers when compared to expression of AbTE:G17R; secreted MCFA titers against AbTE:WT [1]: a more than 3-fold in secreted MCFA titers when compared to AbTE:WT
AbTE:G17R (protein) MGKTILILGDSLSAGYRINPEQGWVALLQKRLDQQFPKQHKVINASVSGETTSGALARLPKLLTTYRPNVVVIELGGNDALRGQPPQMIQSNLEKLIQHSQKAKSKVVVFGMKIPPNYGTAYSQAFENNYKVVSQTYQVKLLPFFLDGVAGHKSLMQNDQIHPNAKAQSILLNNAYPYIKGAL |  | ˜76 mg/L of secreted MCFAs | cultivating E. coli expressing AbTE:G17R for 72 hrs did not result in any changes in MCFA titers | 
AbTE:T120R/A121R (protein) MGKTILILGDSLSAGYGINPEQGWVALLQKRLDQQFPKQHKVINASVSGETTSGALARLPKLLTTYRPNVVVIELGGNDALRGQPPQMIQSNLEKLIQHSQKAKSKVVVFGMKIPPNYGRRYSQAFENNYKVVSQTYQVKLLPFFLDGVAGHKSLMQNDQIHPNAKAQSILLNNAYPYIKGAL |  |  |  | secreted MCFAs, E. coli, 24 hrs (GC/MS) [1]: AbTE:T120R/A121R produced ˜45 mg/L of secreted MCFAs
